{
  "source": "patent US20220175942A1",
  "about": "(OXFORD UNIVERSITY INNOVATION, published 2022)",
  "binders": {"B1": {"name": "P546_AMBCA (other)", "chain": "ENTQQEEEDYDYGTDTCPFPVLANKTNKAKFVGCHQKCNGGDQKLTDGTACYVVERKVWDRMTPMLWYSCPLGECKNGVCEDLRKKEECRKGNGEEK", "notes": "Tick evasin; also called Evasin"}, "B2": {"name": "CCL5_HUMAN (ligand)", "chain": "SPYSSDTTPCCFAYIARPLPRAHIKEYFYTSGKCSNPAVVFVTRKNRQVCANPEKKWVREYINSLEMS", "notes": "Biotinylated (detected with streptavidin-Alexa647) in yeast display; AlexaFluor 647 labelled (Almac) in thermophoresis"}},
  "key": {"[1]": {"target": "T1, P1243_AMBAM (Amblyomma americanum, UniProt A0A0C9S461 26-123)", "T1 construct": "Tick evasin; also called Evasin", "T1 sequence": "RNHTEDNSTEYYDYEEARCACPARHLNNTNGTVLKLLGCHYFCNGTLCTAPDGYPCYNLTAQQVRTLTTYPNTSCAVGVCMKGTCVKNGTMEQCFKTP", "experiment": "microscale thermophoresis, AlexaFluor 647 labelled chemokine"}, "[2]": {"target": "T2, CCL25_HUMAN (human, UniProt O15444 24-150)", "T2 construct": "Biotinylated (detected with streptavidin-Alexa647) in yeast display; AlexaFluor 647 labelled (Almac) in thermophoresis", "T2 sequence": "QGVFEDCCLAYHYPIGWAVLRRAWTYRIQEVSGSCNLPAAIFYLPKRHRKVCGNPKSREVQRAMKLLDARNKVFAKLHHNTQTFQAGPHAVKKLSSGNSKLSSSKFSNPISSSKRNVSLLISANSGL", "experiment": "microscale thermophoresis, AlexaFluor 647 labelled chemokine"}, "[3]": {"target": "B1", "experiment": "microscale thermophoresis, AlexaFluor 647 labelled chemokine"}, "[4]": {"target": "T3, P1182_AMBMA (Amblyomma maculatum, UniProt G3MJ83 27-115)", "T3 construct": "Tick evasin; also called Evasin", "T3 sequence": "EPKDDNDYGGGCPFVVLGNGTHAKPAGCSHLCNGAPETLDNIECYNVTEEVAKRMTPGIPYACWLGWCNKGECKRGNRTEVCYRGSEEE", "experiment": "yeast surface display library FACS screen, labelled chemokine (col C: isolated in)"}, "[5]": {"target": "T4, P672_RHIPU (Rhipicephalus pulchellus, UniProt L7MC74 22-125)", "T4 construct": "Tick evasin; also called Evasin", "T4 sequence": "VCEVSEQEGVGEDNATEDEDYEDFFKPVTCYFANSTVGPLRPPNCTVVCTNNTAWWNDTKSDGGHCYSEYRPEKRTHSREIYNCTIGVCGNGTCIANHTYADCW", "experiment": "yeast surface display library FACS screen, labelled chemokine (col C: isolated in)"}, "[6]": {"target": "B1", "experiment": "yeast surface display FACS re-test, >3 fold MFI over control (col D);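 note: yeast displaying putative tick Evasins stained with biotinylated human chemokine plus streptavidin-Alexa647, flow cytometry, positive when MFI exceeds 3-fold the empty-vector or no-chemokine background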"}, "[7]": {"target": "T5, P983_AMBCA (Amblyomma cajennense, UniProt A0A023FFB5 22-119)", "T5 construct": "Tick evasin; also called Evasin", "T5 sequence": "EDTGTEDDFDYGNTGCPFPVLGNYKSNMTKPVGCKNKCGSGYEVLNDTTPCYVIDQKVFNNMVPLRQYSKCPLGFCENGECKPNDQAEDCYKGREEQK", "experiment": "yeast surface display FACS re-test, >3 fold MFI over control (col D)"}, "[8]": {"target": "T6, P985_AMBPA (Amblyomma parvum, UniProt A0A023FT45 25-132)", "T6 construct": "Tick evasin; also called Evasin", "T6 sequence": "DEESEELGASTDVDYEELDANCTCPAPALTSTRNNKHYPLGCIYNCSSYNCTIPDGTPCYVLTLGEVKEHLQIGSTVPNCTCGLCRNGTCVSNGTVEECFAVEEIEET", "experiment": "yeast surface display FACS re-test, >3 fold MFI over control (col D)"}, "[9]": {"target": "T7, P1180_AMBTR (Amblyomma triste, UniProt A0A023G6B6 26-116)", "T7 construct": "Tick evasin; also called Evasin", "T7 sequence": "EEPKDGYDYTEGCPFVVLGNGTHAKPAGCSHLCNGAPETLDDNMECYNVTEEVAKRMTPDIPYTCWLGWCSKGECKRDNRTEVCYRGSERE", "experiment": "yeast surface display library FACS screen, labelled chemokine (col C: isolated in)"}, "[10]": {"target": "T8, P1181_AMBMA (Amblyomma maculatum, UniProt G3MIX6 26-115)", "T8 construct": "Tick evasin; also called Evasin", "T8 sequence": "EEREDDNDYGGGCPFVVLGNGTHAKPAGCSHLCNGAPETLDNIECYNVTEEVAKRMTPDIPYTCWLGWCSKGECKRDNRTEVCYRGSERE", "experiment": "yeast surface display library FACS screen, labelled chemokine (col C: isolated in)"}, "[11]": {"target": "T1, P1243_AMBAM", "experiment": "yeast surface display library FACS screen, labelled chemokine (col C: isolated in)"}, "[12]": {"target": "T9, P974_AMBCA (Amblyomma cajennense, UniProt A0A023FDY8 22-118)", "T9 construct": "Tick evasin; also called Evasin", "T9 sequence": "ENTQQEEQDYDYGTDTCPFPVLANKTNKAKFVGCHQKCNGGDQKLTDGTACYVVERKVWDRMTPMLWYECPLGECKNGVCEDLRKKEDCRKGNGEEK", "experiment": "yeast surface display library FACS screen, labelled chemokine (col C: isolated in)"}, "[13]": {"target": "T10, P991_AMBCA (Amblyomma cajennense, UniProt A0A023FFD0 29-136)", "T10 construct": "Tick evasin; also called Evasin", "T10 sequence": "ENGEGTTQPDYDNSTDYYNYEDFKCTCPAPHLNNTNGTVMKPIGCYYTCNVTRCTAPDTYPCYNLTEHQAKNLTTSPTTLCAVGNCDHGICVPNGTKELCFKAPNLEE", "experiment": "yeast surface display library FACS screen, labelled chemokine (col C: isolated in)"}, "[14]": {"target": "B2", "experiment": "microscale thermophoresis, AlexaFluor 647 labelled chemokine"}, "[15]": {"target": "T11, CCL18_HUMAN (human, UniProt P55774 21-89)", "T11 construct": "Biotinylated (detected with streptavidin-Alexa647) in yeast display; AlexaFluor 647 labelled (Almac) in thermophoresis", "T11 sequence": "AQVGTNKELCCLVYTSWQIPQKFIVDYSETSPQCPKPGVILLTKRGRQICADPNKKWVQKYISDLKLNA", "experiment": "yeast surface display FACS re-test, >3 fold MFI over control (col D)"}, "[16]": {"target": "T12, CCL1_HUMAN (human, UniProt P22362 24-96)", "T12 construct": "Biotinylated (detected with streptavidin-Alexa647) in yeast display; AlexaFluor 647 labelled (Almac) in thermophoresis", "T12 sequence": "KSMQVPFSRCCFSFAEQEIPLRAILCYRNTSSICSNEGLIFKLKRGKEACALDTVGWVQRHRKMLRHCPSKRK", "experiment": "yeast surface display library FACS screen, labelled chemokine (col C: isolated in)"}, "[17]": {"target": "T13, CCL11_HUMAN (human, UniProt P51671 24-97)", "T13 construct": "Biotinylated (detected with streptavidin-Alexa647) in yeast display; AlexaFluor 647 labelled (Almac) in thermophoresis", "T13 sequence (P51671 24-97 limits assumed)": "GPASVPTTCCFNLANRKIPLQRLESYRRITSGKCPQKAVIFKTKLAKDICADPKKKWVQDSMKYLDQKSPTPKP", "experiment": "yeast surface display library FACS screen, labelled chemokine (col C: isolated in)"}, "[18]": {"target": "T14, CXCL8_HUMAN (human, UniProt P10145 28-99)", "T14 construct": "Biotinylated (detected with streptavidin-Alexa647) in yeast display; AlexaFluor 647 labelled (Almac) in thermophoresis", "T14 sequence": "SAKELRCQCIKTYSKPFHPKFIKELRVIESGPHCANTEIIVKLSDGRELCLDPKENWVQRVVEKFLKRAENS", "experiment": "yeast surface display library FACS screen, labelled chemokine (col C: isolated in)"}, "[19]": {"target": "T15, P467_RHIPU (Rhipicephalus pulchellus, UniProt L7M8Z8 22-127)", "T15 construct": "Tick evasin; also called Evasin", "T15 sequence": "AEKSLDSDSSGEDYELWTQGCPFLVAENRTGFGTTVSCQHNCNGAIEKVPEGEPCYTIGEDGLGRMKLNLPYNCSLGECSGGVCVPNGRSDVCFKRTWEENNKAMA", "experiment": "microscale thermophoresis, AlexaFluor 647 labelled chemokine"}, "[20]": {"target": "T6, P985_AMBPA", "experiment": "microscale thermophoresis, AlexaFluor 647 labelled chemokine"}},
  "data": [
    {"binder": "CCL15_HUMAN (ligand, Biotinylated (detected with streptavidin-Alexa647) in yeast display; AlexaFluor 647 labelled (Almac) in thermophoresis) QFTNDAETELMMSKLPLENPVVLNSFHFAADCCTSYISQSIPCSLMKSYFETSSECSKPGVIFLTKKGRQVCAKPSGPGVQDCMKKLKPYSI", "values": [
      {"measurement": "Kd", "setting": "[1]", "result": 4, "unit": "nM"}
    ]},
    {"binder": "B1", "values": [
      {"measurement": "Kd", "setting": "[2]", "result": 1220, "unit": "nM"}
    ]},
    {"binder": "CCL8_HUMAN (ligand, Biotinylated (detected with streptavidin-Alexa647) in yeast display; AlexaFluor 647 labelled (Almac) in thermophoresis) QPDSVSIPITCCFNVINRKIPIQRLESYTRITNIQCPKEAVIFKTKRGKEVCADPKERWVRDSMKHLDQIFQNLKP", "values": [
      {"measurement": "Kd", "setting": "[3]", "result": 80, "unit": "nM"},
      {"measurement": "binding result", "setting": "[4]", "result": "binds"},
      {"measurement": "binding result", "setting": "[5]", "result": "binds"}
    ]},
    {"binder": "CCL4 (ligand, Biotinylated (detected with streptavidin-Alexa647) in yeast display; also called human CCL4) APMGSDPPTACCFSYTARKLPRNFVVDYYETSSLCSQPAVVFQTKRSKQVCADPSESWVQEYVYDLELN", "values": [
      {"measurement": "binding result", "setting": "[6]", "result": "binds"},
      {"measurement": "binding result", "setting": "[7]", "result": "binds"},
      {"measurement": "binding result", "setting": "[8]", "result": "binds"},
      {"measurement": "binding result", "setting": "[9]", "result": "binds"},
      {"measurement": "binding result", "setting": "[10]", "result": "binds"},
      {"measurement": "binding result", "setting": "[4]", "result": "binds"},
      {"measurement": "binding result", "setting": "[11]", "result": "binds"},
      {"measurement": "binding result", "setting": "[12]", "result": "binds"},
      {"measurement": "binding result", "setting": "[13]", "result": "binds"}
    ]},
    {"binder": "P1215_AMBPA (other, Tick evasin; also called Evasin) KTDTKNAAGELPPKVVIPGCEDPATTKAPLPDEPPYYGITIDKDGCQRKVLGSSQRQQRKVQNGRKLDGKKRGRRPVFVDLELTVDCKRKCNGTYSQLPDGENCLVSDGYPYGRWGTIKGGCYQGNCSSGQCHRGEKKVNCYLPKNITNDVPKSLNLAE", "values": [
      {"measurement": "Kd", "setting": "[14]", "result": 73, "unit": "nM"},
      {"measurement": "binding result", "setting": "[15]", "result": "binds"},
      {"measurement": "binding result", "setting": "[16]", "result": "binds"},
      {"measurement": "binding result", "setting": "[17]", "result": "binds"},
      {"measurement": "binding result", "setting": "[18]", "result": "binds"}
    ]},
    {"binder": "B2", "values": [
      {"measurement": "Kd", "setting": "[19]", "result": 48, "unit": "nM"},
      {"measurement": "Kd", "setting": "[20]", "result": 48, "unit": "nM"}
    ]}
  ]
}
